Numbering of substitutions follows the chain as printed. Numbers in names are those of the source.
B1: SEQ ID NO: 60: UGT_1,6 (Coffea Arabica) (protein, listed as Coffea arabica)
chain: MENHATFNVLMLPWLAHGHVSPYLELAKKLTARNFNVYLCSSPATLSSVRSKLTEKFSQSIHLVELHLPKLPELPAEYHTTNGLPPHLMPTLKDAFDMAKPNFCNVLKSLKPDLLIYDLLQPWAPEAASAFNIPAVVFISSSATMTSFGLHFFKNPGTKYPYGNAIFYRDYESVFVENLTRRDRDTYRVINCMERSSKIILIKGFNEIEGKYFDYFSCLTGKKVVPVGPLVQDPVLDDEDCRIMQWLNKKEKGSTVFVSFGSEYFLSKKDMEEIAHGLEVSNVDFIWVVRFPKGENIVIEETLPKGFFERVGERGLVVNGWAPQAKILTHPNVGGFVSHCGWNSVMESMKFGLPIIAMPMHLDQPINARLIEEVGAGVEVLRDSKGKLHRERMAETINKVMKEASGESVRKKARELQEKLELKGDEEIDDVVKELVQLCATKNKRNGLHYY
B2: SEQ ID NO: 29: OsUGT1-2 (Oryza sativa) (protein, listed as Oryza sativa)
chain: MDSGYSSSYAAAAGMHVVICPWLAFGHLLPCLDLAQRLASRGHRVSFVSTPRNISRLPPVRPALAPLVAFVALPLPRVEGLPDGAESTNDVPHDRPDMVELHRRAFDGLAAPFSEFLGTACADWVIVDVFHHWAAAAALEHKVPCAMMLLGSAHMIASIADRRLERAETESPAAAGQGRPAAAPTFEVARMKLIRTKGSSGMSLAERFSLTLSRSSLVVGRSCVEFEPETVPLLSTLRGKPITFLGLMPPLHEGRREDGEDATVRWLDAQPAKSVVYVALGSEVPLGVEKVHELALGLELAGTRFLWALRKPTGVSDADLLPAGFEERTRGRGVVATRWVPQMSILAHAAVGAFLTHCGWNSTIEGLMFGHPLIMLPIFGDQGPNARLIEAKNAGLQVARNDGDGSFDREGVAAAIRAVAVEEESSKVFQAKAKKLQEIVADMACHERYIDGFIQQLRSYKD
B3: SEQ ID NO: 79: PgUGT94_B1 (Panax ginseng) (protein)
chain: MADNQNGRISIALLPFLAHGHISPFFELAKQLAKRNCNVFLCSTPINLSSIKDKDSSASIKLVELHLPSSPDLPPHYHTTNGLPSHLMLPLRNAFETAGPTFSEILKTLNPDLLIYDFNPSWAPEIASSHNIPAVYFLTTAAASSSIGLHAFKNPGEKYPFPDFYDNSNITPEPPSADNMKLLHDFIACFERSCDIILIKSFRELEGKYIDLLSTLSDKTLVPVGPLVQDPMGHNEDPKTEQIINWLDKRAESTVVFVCFGSEYFLSNEELEEVAIGLEISTVNFIWAVRLIEGEKKGILPEGFVQRVGDRGLVVEGWAPQARILGHSSTGGFVSHCGWSSIAESMKFGVPVIAMARHLDQPLNGKLAAEVGVGMEVVRDENGKYKREGIAEVIRKVVVEKSGEVIRRKARELSEKMKEKGEQEIDRALEELVQICKKKKDEQ
modifications: Panax ginseng
B4: SEQ ID NO: 77: SgUGT94-289-3.2 (Siraitia grosvenorii) (protein)
chain: MADAAQQGDTTTILMLPWLGYGHLSAFLELAKSLSRRNFHIYFCSTSVNLDAIKPKLPSSFSDSIQFVELHLPSSPEFPPHLHTTNGLPPTLMPALHQAFSMAAQHFESILQTLAPHLLIYDSLQPWAPRVASSLKIPAINFNTTGVFVISQGLHPIHYPHSKFPFSEFVLHNHWKAMYSTADGASTERTRKRGEAFLYCLHASCSVILINSFRELEGKYMDYLSVLLNKKVVPVGPLVYEPNQDGEDEGYSSIKNWLDKKEPSSTVFVSFGSEYFPSKEEMEEIAHGLEASEVNFIWVVRFPQGDNTSGIEDALPKGFLERAGERGMVVKGWAPQAKILKHWSTGGFVSHCGWNSVMESMMFGVPIIGVPMHVDQPFNAGLVEEAGVGVEAKRDPDGKIQRDEVAKLIKEVVVEKTREDVRKKAREMSEILRSKGEEKFDEMVAEISLLLKI
B5: SEQ ID NO: 76: CeUGT_1,6.2 (Coffea eugenioides) (protein, listed as Coffea sp.)
chain: MAENHATFNVLMLPWLAHGHVSPYLELAKKLTARNFNVYLCSSPATLSSVRSKLTEKFSQSIHLVELHLPKLPELPAEYHTTNGLPPHLMPTLKDAFDMAKPNFCNVLKSLKPDLLIYDLLQPWAPEAASAFNIPAVVFISSSATMTSFGLHFFKNPGTKYPYGNAIFYRDYESVFVENLTRRDRDTYRVINCMERSSKIILIKGFNEIEGKYFDYFSCLTGKKVVPVGPLVQDPVLDDEDCEIMQWLNKKEKVSTVFVSFGSEYFLSKKDMEEIAHGLELSNVDFIWVVRFPKGENIVIEETLPKGFFERVGERGLVVNGWAPQAKILTHPNVGGFVSHCGWNSVMESMKFGLPIIAMPMHLDQPINARLIEEVGAGVEVLRDSKGKLHRERMAETINKVMKEASGESVRKKARELQEKMDLKGDEEIDDVVKELVQLCATKNKRNGLHYY
B6: SEQ ID NO: 75: CeUGT_1,6 (Coffea eugenioides) (protein, listed as Coffea sp.)
chain: MAENHATFNVLMLPWLAHGHVSPYLELAKKLTARNFNVYLCSSPATLSSVRSKLTEKFSQSIHLVELHLPKLPELPAEYHTTNGLPPHLMPTLKDAFDMAEPNFCNVLKSLKPDLLIYDLLQPWAPEAASAFNIPAVVFISSSATMTSFGLHFFKNPGTKYPYGNTIFYRDYESVFVENLKRRDRDTYRVVNCMERSSKIILIKGFKEIEGKYFDYFSCLTGKKVVPVGPLVQDPVLDDEDCRIMQWLNKKEKGSTVFVSFGSEYFLSKEDMEEIAHGLELSNVDFIWVVRFPKGENIVIEETLPKGFFERVGERGLVVNGWAPQAKILTHPNVGGFVSHCGWNSVMESMKFGLPIIAMPMHLDQPINARLIEEVGAGVEVLRDSKGKLHRERMAETINKVTKEASGESVRKKARELQEKLELKGDEEIDDVVKELVQLCATKNKRNGLHYN
B7: A130D: mutation to UGT enzyme of SEQ ID NO: 14 (protein)
chain: MATKNSSGMSLAERFWLTLSRSSLVVGRSCVEFEPETVPLLSTLRGKPITFLGLMPPLHEGRREDGEDATVRWLDAQPAKSVVYVALGSEVPLGVEKVHELALGLELAGTRFLWALRKPTGVSDADLLPDGFEERTRGRGVVATRWVPQMSILAHAAVGAFLTHCGWNSTIEGLMFGHPLIMLPITGDQGPNARLIEAKNAGLQVARNDGDGSFDREGVAAAIRAVAVEEESSKVFQAKAKKLQEIVADMACHERYIDGFIQQLRSYKDDSGYSSSYAAAAGMHVVICPWLAFGHLLPCLDLAQRLASRGHRVSFVSTPRNISRLPPVRPALAPLVAFVALPLPRVEGLPDGAESTNDVPHDRPDMVELHRRAFDGLAAPFSEFLGTACADWVIVDSFHHWAAAAALEHKVPCAMMLLGSAEMIASIADERLEHAETESPAAAGQGRPAAAPTFEVARMKLIR
B8: P56A: mutation to UGT enzyme of SEQ ID NO: 14 (protein)
chain: B7 chain with P56A, D130A
B9: S42E: mutation to UGT enzyme of SEQ ID NO: 14 (protein)
chain: B7 chain with S42E, D130A
B10: S266R: mutation to UGT enzyme of SEQ ID NO: 14 (protein)
chain: B7 chain with D130A, S266R
B11: H400Y: mutation to UGT enzyme of SEQ ID NO: 14 (protein)
chain: B7 chain with D130A, H400Y
B12: SEQ ID NO: 39: SgUGT94-289-1 (Siraitia grosvenorii) (protein)
chain: MDAQRGHTTTILMFPWLGYGHLSAFLELAKSLSRRNFHIYFCSTSVNLDAIKPKLPSSSSSDSIQLVELCLPSSPDQLPPHLHTTNALPPHLMPTLHQAFSMAAQHFAAILHTLAPHLLIYDSFQPWAPQLASSLNIPAINFNTTGASVLTRMLHATHYPSSKFPISEFVLHDYWKAMYSAAGGAVTKKDHKIGETLANCLHASCSVILINSFRELEEKYMDYLSVLLNKKVVPVGPLVYEPNQDGEDEGYSSIKNWLDKKEPSSTVFVSFGSEYFPSKEEMEEIAHGLEASEVHFIWVVRFPQGDNTSAIEDALPKGFLERVGERGMVVKGWAPQAKILKHWSTGGFVSHCGWNSVMESMMFGVPIIGVPMHLDQPFNAGLAEEAGVGVEAKRDPDGKIQRDEVAKLIKEVVVEKTREDVRKKAREMSEILRSKGEEKMDEMVAAISLFLKI

Columns and labels:
[1] = tested on: Mog. IIE or Mog. IE; experiment: branched glycosylation reactions by cells expressing UGT enzymes; format: cell-based, E. coli; settings: Mog. IIE or Mog. IE fed; 37° C., 48 hr; LC-MS/MS
Experimental: Mog. IIE or Mog. IE was fed to cells expressing various UGT enzymes. Reactions were incubated at 37° C. for 48 hr. Products were quantified by LC-MS/MS with authentic standards of each compound. “Indirect” evidence means that consumption of substrate was observed.

[2] = tested on: steviol glycoside; experiment: steviol glycoside bioconversion by E. coli expressing individual mutations of UGT SEQ ID NO: 14; format: cell-based; settings: fold improvement of % conversion vs parent UGT SEQ ID NO: 14; stevia leaf extract and glucose fed; 37° C., 48 hr
In short: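 E. coli strains expressing single mutants of the parent UGT were fed stevia leaf extract and glucose and incubated at 37 °C for 48 hr. Steviol glycoside conversion was quantified by reverse-phase LC-DAD. Fold improvement is relative to % conversion by the parent enzyme.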

Molecule	C3 1-2 [1]	C3 1-6 [1]	C24 1-2 [1]	C24 1-6 [1]	FI %Stevioside→rebE [2]	FI %rebA→rebD [2]
B1	No	Yes	Yes	Yes		
B2	No	No	No	Yes		
B3	No	No	No	Yes		
B4	No	Yes	No	Yes		
B5	No	Yes	No	Yes		
B6	Yes	Yes	Yes	Yes		
B7					1.4	1.3
B8					1.5	1.3
B9					1.8	1.3
B10					1.4	1.3
B11					1.2	1.3
B12	No	Yes	Yes	Yes		

— patent US20260242839A1, “GLYCOSIDE PRODUCT BIOSYNTHESIS AND RECOVERY” (Manus Bio Inc., priority 2023, published 2026)
